This passage reports co-immunoprecipitated DHC1 normalized to immunoprecipitated GFP-MAP2C, relative to WT (relative to the WT condition (set to 1)) and Kd results from publication PMC13571933, “Active transport by cytoplasmic dynein sustains dendritic MAP2 localization in developing neurons” (The Journal of Biological Chemistry, 2026).

The term Kd denotes the free concentration of one partner at which half of the binding sites on the other are occupied at equilibrium, for simple one-to-one binding.

Assay [1] addresses GFP-MAP2C ΔSP (human MAP2C lacking the serine/proline-rich region), expressed in HEK293 cells (human) (UniProt P11137). Put plainly: co-IP; anti-His antibody on Dynabeads Protein G; 500 μg lysate of HEK293 cells co-expressing DHC1 and GFP-His-MAP2C; 50 mM Hepes pH 7.4, 100 mM NaCl, 2 mM EDTA, 0.5% Triton X-100; 1 h at 4 °C; blot with anti-DHC1 and anti-GFP, bands quantified with ImageJ.

Assay [2] addresses T1, microtubules (MTs), endogenous in cultured rat hippocampal neurons (rat (endogenous in hippocampal neurons), UniProt Q4QRB4 1-450, Representative alpha/beta heterodimer of a microtubule polymer (many copies). Endogenous neuronal microtubules are a mixture of tubulin isotypes. The alpha member is not told in the paper (Tuba1a assu)). Put plainly: FRAP fitted with a reaction-diffusion simulation; as a3 but with 40 μM MT binding sites assumed. Particulars: partners not purified.

Assay [3] concerns the target T1, microtubules (MTs), endogenous in …. Kind of assay: FRAP fitted with a reaction-diffusion simulation; FRAP of GFP-MAP2C in living neurons; KD from the best fit of a VCell simulation; 75 μM MT binding sites, 25 μM GFP-MAP2C and 5 μM endogenous MAP2 assumed; kon set, koff adjusted. Particulars: partners not purified.

The molecule “cytoplasmic dynein heavy chain 1 (DHC1), expressed from a plasmid in HEK293 cells, Q14204 1-4646” displayed a co-immunoprecipitated DHC1 normalized to immunoprecipitated GFP-MAP2C, relative to WT (relative to the WT condition (set to 1)) in assay [1] of 0.45.

B1: GFP-MAP2C (human MAP2C tagged with AcGFP and 6xHis, wild type), expressed in cultured rat hippocampal neurons (natural protein, UniProt P11137-2 1-471, looked up)
chain: MADERKDEAKAPHWTSAPLTEASAHSHPPEIKDQGGAGEGLVRSANGFPYREDEEGAFGEHGSQGTYSNTKENGINGELTSADRETAEEVSARIVQVVTAEAVAVLKGEQEKEAQHKDQTAALPLAAEETANLPPSPPPSPASEQTVTVEEAAGGESALAPSVFKQAKDKVSDGVTKSPEKRSSLPRPSSILPPRRGVSGDRDENSFSLNSSISSSARRTTRSEPIRRAGKSGTSTPTTPGSTAITPGTPPSYSSRTPGTPGTPSYPRTPHTPGTPKSAILVPSEKKVAIIRTPPKSPATPKQLRLINQPLPDLKNVKSKIGSTDNIKYQPKGGQVQIVTKKIDLSHVTSKCGSLKNIRHRPGGGRVKIESVKLDFKEKAQAKVGSLDNAHHVPGGGNVKIDSQKLNFREHAKARVDHGAEIITQSPGRSSVASPRRLSNVSSSGSINLLESPQLATLAEDVTAALAKQGL
notes: MAP2C, low molecular weight isoform of human microtubule-associated protein 2; the 471-amino-acid isoform; Same construct as m1, other host; also called wild-type GFP-MAP2C; WT; source: cultured rat hippocampal neurons, transfected, in living cells; not shown: AcGFP, N-terminal, kept
As for B1, the Kd was 1000 nM in assay [2] and 4500 nM in assay [3].
